Source: patent US20200071404A1

Molecular target: human CD73 expressed on cells (cancer cell line NCI-H1373 endogenously expressing human CD73; human T cell expressing human CD73) (human) (UniProt P21589)
Assay: cell-based or functional assay

Sequence of human CD73 expressed on cells (cancer cell line NCI-H1373 endogenously expressing human CD73; human T cell expressing human CD73) (human) (P21589 27-549): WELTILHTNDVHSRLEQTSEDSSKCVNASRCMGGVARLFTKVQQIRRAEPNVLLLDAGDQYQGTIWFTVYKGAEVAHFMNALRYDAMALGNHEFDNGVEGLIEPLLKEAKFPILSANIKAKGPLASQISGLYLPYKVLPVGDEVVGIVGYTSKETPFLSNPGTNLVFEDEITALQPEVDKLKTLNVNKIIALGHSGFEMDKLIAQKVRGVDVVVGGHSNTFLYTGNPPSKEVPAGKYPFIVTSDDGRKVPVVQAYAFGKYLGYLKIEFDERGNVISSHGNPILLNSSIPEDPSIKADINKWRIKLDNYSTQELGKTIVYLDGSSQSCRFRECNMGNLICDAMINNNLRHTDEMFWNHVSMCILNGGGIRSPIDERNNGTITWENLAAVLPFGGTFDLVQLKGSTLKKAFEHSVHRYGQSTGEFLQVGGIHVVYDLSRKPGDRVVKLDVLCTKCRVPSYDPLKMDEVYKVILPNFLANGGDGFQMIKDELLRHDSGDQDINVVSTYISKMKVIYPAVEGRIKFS

EC50 (ng/mL), IFNγ; recovery of AMP-dependently suppressed human T cell functions: 132 ng/mL | EC50 (ng/mL), Proliferation of T cells; recovery of AMP-dependently suppressed human T cell functions: 357 ng/mL
B1: 6E1 (antibody, from another filing, V domains shown)
VH: EFQLQQSGPELVKPGASVKVSCKASGYAFTSYNMYWVKQSHGKRLEWIGYIDPYNGGSSYNQKFKGKATLTVDKSSSTAYMHLNNLTSEDSAVYYCARGYNNYKAWFAYWGQGTLVTVSA
VL: SIVMTQTPKFLLVSAGDRVTITCKASQSVTNDVAWYQQKPGQSPKLLIYYASNRYTGVPDRFTGSGYGTDFTFTISTMQAEDLAVYFCQQDYSSLTFGAGTKLELK
